{"source": "patent US20230129812A1", "about": "“COMPOSITIONS AND METHODS FOR TREATING PULMONARY HYPERTENSION” (Acceleron Pharma Inc., priority 2020, published 2023)", "molecules": {"B1": {"name": "ALK4-Fc:ActRIIB-Fc heterodimer: heteromeric complex of extracellular domains of human ActRIIB and human ALK4, each separately fused to an Fc domain with a linker (protein)", "chain 1": "GRGEAETRECIYYNANWELERTNQSGLERCEGEQDKRLHCYASWRNSSGTIELVKKGCWLDDFNCYDRQECVATEENPQVYFCCCEGNFCNERFTHLPEAGGPEVTYEPPPTAPTGGGTHTCPPCPAPELLGGPSVFLFPPKPKDTLMISRTPEVTCVVVDVSHEDPEVKFNWYVDGVEVHNAKTKPREEQYNSTYRVVSVLTVLHQDWLNGKEYKCKVSNKALPAPIEKTISKAKGQPREPQVYTLPPSRKEMTKNQVSLTCLVKGFYPSDIAVEWESNGQPENNYKTTPPVLKSDGSFFLYSKLTVDKSRWQQGNVFSCSVMHEALHNHYTQKSLSLSPGK", "chain 2": "SGPRGVQALLCACTSCLQANYTCETDGACMVSIFNLDGMEHHVRTCIPKVELVPAGKPFYCLSSEDLRNTHCCYTDYCNRIDLRVPSGHLKEPEHPSMWGPVETGGGTHTCPPCPAPELLGGPSVFLFPPKPKDTLMISRTPEVTCVVVDVSHEDPEVKFNWYVDGVEVHNAKTKPREEQYNSTYRVVSVLTVLHQDWLNGKEYKCKVSNKALPAPIEKTISKAKGQPREPQVYTLPPSREEMTKNQVSLTCLVKGFYPSDIAVEWESNGQPENNYDTTPPVLDSDGSFFLYSDLTVDKSRWQQGNVFSCSVMHEALHNHYTQKSLSLSPG"}}, "test_in_all_cases": "A-204 Reporter Gene Assay (Example 13)", "assay_type_in_all_cases": "cell-based", "key": {"BMP10": {"molecular_target": "T1, BMP10 (Homo sapiens, UniProt O95393)", "T1 sequence (O95393 317-424)": "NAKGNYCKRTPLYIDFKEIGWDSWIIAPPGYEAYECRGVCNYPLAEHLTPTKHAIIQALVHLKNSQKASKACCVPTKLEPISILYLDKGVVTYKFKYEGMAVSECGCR", "from_the_text": "(§1) In addition, an A-204 Reporter Gene Assay was used to evaluate the effects of ALK4-Fc:ActRIIB-Fc heterodimer and ActRIIB-Fc:ActRIIB-Fc homodimer on signaling by activin A, activin B, GDF11, GDF8, BMP10, and BMP9. Cell line: Human Rhabdomyosarcoma (derived from muscle). Reporter vector: pGL3(CAGA)12 (as described in Dennler et al, 1998, EMBO 17: 3091-3100). The CAGA12 motif is present in TGFβ responsive genes (PAI-1 gene), so this vector is of general use for factors signaling through Smads. An exemplary A-204 Reporter Gene Assay is outlined below. • Day 1: Split A-204 cells into 48-well plate. • Day 2: A-204 cells transfected with 10 ug pGL3(CAGA)12 or pGL3(CAGA)12(10 ug)+pRLCMV (1 ug) and Fugene. • Day 3: Add factors (diluted into medium+0.1% BSA). Inhibitors need to be pre-incubated with Factors for about one hr before adding to cells. About six hrs later, cells are rinsed with PBS and then lysed.\n(§2) Following the above steps, a Luciferase assay was performed."}, "BMP9": {"molecular_target": "T2, BMP9 (Homo sapiens, UniProt Q9UK05)", "T2 sequence (Q9UK05 320-429)": "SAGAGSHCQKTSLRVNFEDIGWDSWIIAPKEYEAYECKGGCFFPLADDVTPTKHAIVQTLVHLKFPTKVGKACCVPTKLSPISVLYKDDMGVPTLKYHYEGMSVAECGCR", "from_the_text": "as §1, §2"}, "activin B": {"molecular_target": "T3, activin B (Homo sapiens, UniProt P09529)", "T3 sequence (P09529 293-407)": "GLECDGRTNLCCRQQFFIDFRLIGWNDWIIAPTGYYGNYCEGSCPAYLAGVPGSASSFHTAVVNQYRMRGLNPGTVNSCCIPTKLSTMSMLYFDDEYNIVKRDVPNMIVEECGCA", "from_the_text": "as §1, §2"}}, "data": [{"molecule": "B1", "values": [{"measurement": "inhibition of BMP10 signaling", "setting": "BMP10", "result": "significantly reduced"}, {"measurement": "inhibition of BMP9 signaling", "setting": "BMP9", "result": "significantly reduced"}, {"measurement": "inhibition of activin B signaling", "setting": "activin B", "result": "potent inhibitors"}]}]}
